Laboratory results reported in paper PMC4818781 (EMBO Reports, 2016).
“And” between values parts separate entries of the source, which are not always exact repeats. Identical values can stand only once.

B1: His‐GFP‐spMis18fl, recombinant full‐length S. pombe Mis18 (natural protein, Schizosaccharomyces pombe, UniProt Q9P802 1-194, looked up)
chain: MSQTETSHSGYIDFKKESQPSVFQCKKCFQIVGDSNAWVISHREYLSFTLSDAVENSVRVEDTFKRSDDGLCVYSELSCTRCNEVIGKVYNSTPIYLDDIRDMYTFSMDKLQAYQLGNKTVNPEGLTRYQVDLEMREDIIKLKSFCLSLYEKFELHDETLRSVKETISSLKKPKIEGKEGKKEKARTYSKRTRK
B2: His‐spMis18ΔC (amino acids 1–168) (domain or fragment, Schizosaccharomyces pombe, UniProt Q9P802 1-168, looked up)
chain: MSQTETSHSGYIDFKKESQPSVFQCKKCFQIVGDSNAWVISHREYLSFTLSDAVENSVRVEDTFKRSDDGLCVYSELSCTRCNEVIGKVYNSTPIYLDDIRDMYTFSMDKLQAYQLGNKTVNPEGLTRYQVDLEMREDIIKLKSFCLSLYEKFELHDETLRSVKETIS
B3: His‐hsMis18α_(77–187), Yippee‐like globular domain of human Mis18α (domain or fragment, UniProt Q9NYP9 77-187, looked up)
chain: EERPLVFLCSGCRRPLGDSLSWVASQEDTNCILLRCVSCNVSVDKEQKLSKREKENGCVLETLCCAGCSLNLGYVYRCTPKNLDYKRDLFCLSVEAIESYVLGSSEKQIVS
B4: His‐GFP‐spMis18_(C‐term‐α), C‐terminal α‐helical domain of S. pombe Mis18 (domain or fragment, Schizosaccharomyces pombe, UniProt Q9P802 121-194, looked up)
chain: VNPEGLTRYQVDLEMREDIIKLKSFCLSLYEKFELHDETLRSVKETISSLKKPKIEGKEGKKEKARTYSKRTRK
B5: His‐spMis18_(1–120), N‐terminal Yippee‐like globular domain of S. pombe Mis18 (domain or fragment, Schizosaccharomyces pombe, UniProt Q9P802 1-120, looked up)
chain: MSQTETSHSGYIDFKKESQPSVFQCKKCFQIVGDSNAWVISHREYLSFTLSDAVENSVRVEDTFKRSDDGLCVYSELSCTRCNEVIGKVYNSTPIYLDDIRDMYTFSMDKLQAYQLGNKT

Columns and labels:
[1] = target: the molecule itself; experiment: SEC-MALS; room temperature; 100 μl of protein at 1 mg/ml; 50 mM HEPES pH 8, 300 mM NaCl, 1 mM TCEP
[2] = target: the molecule itself; experiment: SEC-MALS; room temperature; 100 μl of protein at 1 mg/ml; 50 mM HEPES pH 8, 50 mM NaCl, 5 mM DTT
[3] = target: the molecule itself; experiment: SEC-MALS; room temperature; 100 μl of protein at 1 mg/ml; 50 mM HEPES pH 8, 150 mM NaCl, 5 mM DTT; elution volumes of SEC also told
[4] = target: hsMis18β_(56–183), Yippee‐like globular domain of human Mis18β (human, UniProt O43482 56-183); experiment: as above; details: both partners purified
Sequence of hsMis18β_(56–183), Yippee‐like globular domain of human Mis18β (O43482 56-183): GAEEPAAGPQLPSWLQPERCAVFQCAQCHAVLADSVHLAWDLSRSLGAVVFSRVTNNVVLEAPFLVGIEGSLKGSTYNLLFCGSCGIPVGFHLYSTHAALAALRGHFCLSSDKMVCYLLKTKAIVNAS

Binder	stoichiometry N [3]	other results
B1	–	stoichiometry N [1]: 4 and 2
B2	–	stoichiometry N [2]: 2 and 4
B3	2	stoichiometry N [4]: 1
B4	3	–
B5	2	–
